Measurements reported in patent US20240336686A1.
Substitutions are numbered along the chain they refer to.

B1: Anti-SIRPα antibody C25 (antibody, V domains shown)
VH: EVQLQQSGAELVKPGASVKLSCTASGFNIKDYYMHWVKQRTEQGLEWIGRIDPEDGETKYAPKFQGKATITADTSSNTAYLQLSSLTSEDTAVYYCDRGLAYWGQGTLVTVSA
VL: QIVLTQSPAIMSASPGEKVTLTCSASSSVSSSYLYWYQQKPGSSPKLWIYSTSNLASGVPARFSGSGSGTSYSLTISSMEAEDAASYFCHQWSSYPYTFGGGTKLEIK
B2: Humanized anti-SIRPα antibody hu025.021 (antibody, V domains shown)
VH: EVQLVQSGAEVKKPGATVKISCKVSGFNIKDYYMHWVQQAPGKGLEWIGRIDPEDAETKYAPKFQGRVTITADTSTNTAYMELSSLRSEDTAVYYCDRGLAYWGQGTLVTVSS
VL: EIVLTQSPATLSLSPGERATLSCSASSSVSSSYLYWYQQKPGQAPKLWIYSTSNLASGIPARFSGSGSGTDYTLTISSLEPEDFAVYYCHQWSSYPYTFGQGTKLEIK
B3: Humanized anti-SIRPα antibody hu025.023 (antibody, V domains shown)
VH: B2 VH
VL: B2 VL with Y72F
B4: Humanized anti-SIRPα antibody hu025.059 (antibody, V domains shown)
VH: B2 VH with V24A
VL: B2 VL
B5: Humanized anti-SIRPα antibody hu025.060 (antibody, V domains shown)
VH: B2 VH with V24A
VL: B2 VL with Y72F
B6: Anti-Claudin18.2/SIRPα bispecific antibody ES028-001 (bispecific antibody, not shown: a dimerising Fc or GST)
light (part 1 of 2): DIVMTQSPDSLAVSLGERATINCKSSQSLLNAGNQKNYLTWYQQKPGQPPKLLIYWSSTRESGVPDRFSGSGSGTDFTLTISSLQAEDVAVYHCQNNYYYPLTFGGGTKLEIK
light (part 2 of 2): GGGGSGGGGSGGGGSQIVLTQSPAIMSASPGEKVTLTCSASSSVSSSYLYWYQQKPGSSPKLWIYSTSNLASGVPARFSGSGSGTSYSLTISSMEAEDAASYFCHQWSSYPYTFGGGTKLEIKGGGGSGGGGSGGGGSGGGGSEVQLQQSGAELVKPGASVKLSCTASGFNIKDYYMHWVKQRTEQGLEWIGRIDPEDGETKYAPKFQGKATITADTSSNTAYLQLSSLTSEDTAVYYCDRGLAYWGQGTLVTVSA
heavy: QVQLVQSGAEVKKPGASVKVSCKASGYTFTNWVHWVRQAPGQGLEWMGEINPTNARSNYNEKFKKRVTMTRDTSTSTVYMELSSLRSEDTAVYYCARIYYGNSFAHWGQGTLVTVSS
B7: Anti-Claudin18.2/SIRPα bispecific antibody ES028-005 (bispecific antibody, not shown: a dimerising Fc or GST)
light: B6 light (part 1 of 2)
heavy (part 1 of 2): B6 heavy
heavy (part 2 of 2): B6 light (part 2 of 2)
B8: Anti-Claudin18.2/SIRPα bispecific antibody ES028-009 (bispecific antibody, not shown: a dimerising Fc or GST)
light (part 1 of 2): B1 VL
light (part 2 of 2): GGGGSGGGGSGGGGSDIVMTQSPDSLAVSLGERATINCKSSQSLLNAGNQKNYLTWYQQKPGQPPKLLIYWSSTRESGVPDRFSGSGSGTDFTLTISSLQAEDVAVYHCQNNYYYPLTFGGGTKLEIKGGGGSGGGGSGGGGSGGGGSQVQLVQSGAEVKKPGASVKVSCKASGYTFTNWVHWVRQAPGQGLEWMGEINPTNARSNYNEKFKKRVTMTRDTSTSTVYMELSSLRSEDTAVYYCARIYYGNSFAHWGQGTLVTVSS
heavy: B1 VH
B9: Anti-Claudin18.2/SIRPα bispecific antibody ES028-013 (bispecific antibody, not shown: a dimerising Fc or GST)
light: B1 VL
heavy (part 1 of 2): B1 VH
heavy (part 2 of 2): B8 light (part 2 of 2)
B10: Anti-PDL1/SIRPα bispecific antibody ES019-024 (bispecific antibody, not shown: a dimerising Fc or GST)
light: B1 VL
heavy (part 1 of 2): B1 VH
heavy (part 2 of 2): EVQVVESGGGLVQSGGSLKLSCAGSGFTESAGFMVWHRQVPGKERELVALIATPSGSTNYADSVKGRFTISRDNGKNTVYLQMNSLKPEDTAVYYCNIRGYWGQGTLVTVSS
B11: Anti-PDL1/SIRPα bispecific antibody ES019-026 (bispecific antibody, not shown: small tags and cut ends; a dimerising Fc or GST)
light (part 1 of 2): B10 heavy (part 2 of 2)
light (part 2 of 2): B1 VL
heavy: B1 VH
B12: Anti-Claudin18.2 antibody hu28.H1L2 (antibody, V domains shown)
VH: B6 heavy
VL: B6 light (part 1 of 2)

target: Human SIRPα v1 (human) (UniProt P78324); assay: SPR (Biacore), 1:1 binding model
Sequence (P78324 31-370): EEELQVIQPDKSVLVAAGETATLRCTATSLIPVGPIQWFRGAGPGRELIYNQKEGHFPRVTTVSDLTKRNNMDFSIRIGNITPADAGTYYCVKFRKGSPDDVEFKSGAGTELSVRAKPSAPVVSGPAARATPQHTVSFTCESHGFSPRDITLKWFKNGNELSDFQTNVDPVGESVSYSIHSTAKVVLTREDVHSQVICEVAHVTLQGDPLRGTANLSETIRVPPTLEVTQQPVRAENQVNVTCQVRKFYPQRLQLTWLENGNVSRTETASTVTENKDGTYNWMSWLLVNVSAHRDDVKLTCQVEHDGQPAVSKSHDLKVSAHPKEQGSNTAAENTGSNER

Kd [nM] | koff [s⁻¹] | kon [M⁻¹ s⁻¹] | Binder
1.53 | 0.000924 | 602000 | B1
3.05 | 0.00183 | 599000 | B2
2.67 | 0.00172 | 643000 | B3
2.29 | 0.00123 | 536000 | B4
1.99 | 0.00111 | 560000 | B5

target: human SIRPα protein (Octet assay) (human) (UniProt P78324); assay: Octet; antibody on sensor, SIRPα protein in solution

Kd [nM] | koff [s⁻¹] | kon [M⁻¹ s⁻¹] | Binder
1.51 | 0.000271 | 179000 | B6
1.41 | 0.00047 | 334000 | B7
2.12 | 0.00109 | 512000 | B1
2.44 | 0.00133 | 544000 | B8

target: human SIRPα on CHO-K1 cells (human) (UniProt P78324); assay: FACS, CHO-K1 cells overexpressing human SIRPα, anti-human Fc-PE, MFI

EC50 (read off the curve) [nM] | Binder
0.8 | B6
0.9 | B7
0.5 | B1
0.5 | B8
0.5 | B9

target: human SIRPα on CHO-K1 cells (human) (UniProt P78324); assay: as above; remark: another data set of the same source

EC50 (read off the curve) [nM] | Binder
0.3 | B1
0.3 | B10
0.4 | B11

target: human Claudin18.2 on Raji cells (human) (UniProt P56856); assay: FACS, Raji cells overexpressing human Claudin18.2, anti-human Fc-PE, MFI

EC50 (read off the curve) [nM] | Binder
2 | B6
1 | B12
1 | B7
